Reference: publication doi:10.1101/2020.06.12.148387 (bioRxiv, 2020)

Assays:
[1] = molecular target: biotinylated SARS-CoV-2 RBD (SARS-CoV-2, UniProt P0DTC2); test: cell-based ACE2 blocking assay (plate, streptavidin-HRP)
[2] = molecular target: T1, S1 subunit of SARS-CoV-1 Spike (SARS-CoV-1 (SARS-CoV), strain , UniProt P59594); test: ELISA
T1 construct: source: bought: Sino Biological

SARS-CoV-2 RBD-Fc = SARS-CoV-2 RBD-Fc (SARS-CoV-2, strain  …, UniProt P0DTC2); test: SPR; details: both partners purified
[3] = molecular target: deglycosylated SARS-CoV-2 RBD (SARS-CoV-2, UniProt P0DTC2); test: crystal structure; details: both partners purified

B1: EY6A IgG (antibody, V domains shown)
VH: EVQLVESGGGVVQPGRSLRLSCAASAFTFSSYDMHWVRQAPGKGLEWVAVISYDGSNKYYADSVKGRFTISRDNSKNTLYLQMNSLRAEDTAVYYCAKDGGKLWVYYFDYWGQGTLVTVSS
VL: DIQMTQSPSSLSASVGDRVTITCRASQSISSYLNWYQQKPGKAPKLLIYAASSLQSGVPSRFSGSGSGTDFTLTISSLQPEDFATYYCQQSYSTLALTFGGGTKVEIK
notes: also called antibody EY6A; EY6A mAb; copies: 2 + 2
In the case of B1, the IC50 [1] is reported as 54 nM and the binding result [2] is reported as “binds”.

B2: EY6A Fab (digested from IgG with papain) (Fab, V domains shown)
VH: B1 VH
VL: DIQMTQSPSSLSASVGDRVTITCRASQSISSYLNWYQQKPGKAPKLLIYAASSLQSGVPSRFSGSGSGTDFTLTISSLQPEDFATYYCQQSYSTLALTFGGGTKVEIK
notes: also called Fab-EY6A; source: digested from ExpiCHO-made IgG with papain (Pierce Fab Preparation Kit)
Work on B2 yielded a Kd (SARS-CoV-2 RBD-Fc) of 2 nM.

B3: nanobody (Nb) used as crystallisation chaperone (VHH)
VHH: QVQLVESGGGLMQAGGSLRLSCAVSGRTFSTAAMGWFRQAPGKEREFVAAIRWSGGSAYYADSVKGRFTISRDKAKNTVYLQMNSLKYEDTAVYYCAQTHYVSYLLSDYATWPYDYWGQGTQVTVSS
B3: binds [3].
